To fix the notation:
T1: monomeric C-reactive protein (CRP) (UniProt P02741 19-224)
T1 sequence (looked up): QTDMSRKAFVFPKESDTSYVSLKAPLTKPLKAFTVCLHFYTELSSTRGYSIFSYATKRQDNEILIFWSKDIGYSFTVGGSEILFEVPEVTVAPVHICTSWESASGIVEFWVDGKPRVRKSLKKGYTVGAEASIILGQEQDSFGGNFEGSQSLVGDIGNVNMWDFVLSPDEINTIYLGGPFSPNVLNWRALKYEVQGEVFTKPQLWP

B1: CFH-Del (CFH of the CFHR3/1 deletion haplotype, V62-Y402-E936) (other)
chain: EDCNELPPRRNTEILTGSWSDQTYPEGTQAIYKCRPGYRSLGNVIMVCRKGEWVALNPLRKCQKRPCGHPGDTPFGTFTLTGGNVFEYGVKAVYTCNEGYQLLGEINYRECDTDGWTNDIPICEVVKCLPVTAPENGKIVSSAMEPDREYHFGQAVRFVCNSGYKIEGDEEMHCSDDGFWSKEKPKCVEISCKSPDVINGSPISQKIIYKENERFQYKCNMGYEYSERGDAVCTESGWRPLPSCEEKSCDNPYIPNGDYSPLRIKHRTGDEITYQCRNGFYPATRGNTAKCTSTGWIPAPRCTLKPCDYPDIKHGGLYHENMRRPYFPVAVGKYYSYYCDEHFETPSGSYWDHIHCTQDGWSPAVPCLRKCYFPYLENGYNQNYGRKFVQGKSIDVACHPGYALPKAQTTVTCMENGWSPTPRCIRVKTCSKSSIDIENGFISESQYTYALKEKAKYQCKLGYVTADGETSGSITCGKDGWSAQPTCIKSCDIPVFMNARTKNDFTWFKLNDTLDYECHDGYESNTGSTTGSIVCGYNGWSDLPICYERECELPKIDVHLVPDRKKDQYKVGEVLKFSCKPGFTIVGPNSVQCYHFGLSPDLPICKEQVQSCGPPPELLNGNVKEKTKEEYGHSEVVEYYCNPRFLMKGPNKIQCVDGEWTTLPVCIVEESTCGDIPELEHGWAQLSSPPYYYGDSVEFNCSESFTMIGHRSITCIHGVWTQLPQCVAIDKLKKCKSSNLIILEEHLKNKKEFDHNSNIRYRCRGKEGWIHTVCINGRWDPEVNCSMAQIQLCPPPPQIPNSHNMTTTLNYRDGEKVSVLCQENYLIQEGEEITCKDGRWQSIPLCVEKIPCSQPPQIEHGTINSSRSSQESYAHGTKLSYTCEGGFRISEENETTCYMGKWSSPPQCEGLPCKSPPEISHGVVAHMSDSYQYGEEVTYKCFEGFGIDGPAIAKCLGEKWSHPPSCIKTDCLSLPSFENAIPMGEKKDVYKAGEQVTYTCATYYKMDGASNVTCINSRWTGRPTCRDTSCVNPPTVQNAYIVSRQMSKYPSGERVRYQCRSPYEMFGDEEVMCLNGNWTEPPQCKDSTGKCGPPPPIDNGDITSFPLSVYAPASSVEYQCQNLYQLEGNKRITCRNGQWSEPPKCLHPCVISREIMENYNIALRWTAKQKLYSRTGESVEFVCKRGYRLSSRSHTLRTTCWDGKLEYPTCAKR
notes: also called 3,1 Deletion (Del)
B2: CFH-V62-H402-E936 (risk variant of full-length CFH) (other)
chain: B1 chain with Y384H
notes: also called CFH-Risk; CFH-risk protein
B3: CFH-Neu (neutral variant of full-length CFH, V62-Y402-D936) (other)
chain: B1 chain with E918D
notes: also called Neutral (Neu)
B4: CFHT-Neu/Del (truncated CFH of the neutral and deletion haplotypes, V62-Y402) (other)
chain: EDCNELPPRRNTEILTGSWSDQTYPEGTQAIYKCRPGYRSLGNVIMVCRKGEWVALNPLRKCQKRPCGHPGDTPFGTFTLTGGNVFEYGVKAVYTCNEGYQLLGEINYRECDTDGWTNDIPICEVVKCLPVTAPENGKIVSSAMEPDREYHFGQAVRFVCNSGYKIEGDEEMHCSDDGFWSKEKPKCVEISCKSPDVINGSPISQKIIYKENERFQYKCNMGYEYSERGDAVCTESGWRPLPSCEEKSCDNPYIPNGDYSPLRIKHRTGDEITYQCRNGFYPATRGNTAKCTSTGWIPAPRCTLKPCDYPDIKHGGLYHENMRRPYFPVAVGKYYSYYCDEHFETPSGSYWDHIHCTQDGWSPAVPCLRKCYFPYLENGYNQNYGRKFVQGKSIDVACHPGYALPKAQTTVTCMENGWSPTPRCIRVSFTL
B5: CFHT-V62-H402 (risk variant of truncated CFH) (other)
chain: B4 chain with Y384H
notes: also called CFHT-Risk

Residue numbers refer to the chain shown, from its start.

One assay addresses T2, MDA-modified LDL particles.
T2 construct: Not a plain protein; also called MDA-LDL; MDA adducts
In words: relative MDA-binding assay, detection antibody AbCam OX-24 (#Ab112197).
For B1, the “Binding Potential” value was determined as 43.

Take B2: the “Binding Potential” value came out at 30.

Consider B3, for which the “Binding Potential” value worked out at 39.

For B4, the “Binding Potential” value is 28.

Take B5: the “Binding Potential” value was found to be 10.

The next assay concerns the target T2, MDA-modified LDL particles. In words: relative MDA-binding assay, percent of CFH-Risk, detection antibody AbCam OX-24 (#Ab112197).
As to B1, the “% FH-Risk” value was found to be 145%.

As for B2, the “% FH-Risk” value was found to be 100%.

In the case of B3, the “% FH-Risk” value came out at 130%.

For B4, the “% FH-Risk” value was 94%.

On to B5, for which the “% FH-Risk” value is 35%.

Another assay concerns the target T1, monomeric C-reactive protein (CRP). In words: rank of binding affinity among six proteins, plate-based binding assays.
Take B2: the “Binding Affinity Rank (1 best to 6 worst)” value (shortened to “Binding Affinity Rank”) is 6 rank.

For B5, the “Binding Affinity Rank” value was 5 rank.

The target of the next assay is T2, MDA-modified LDL particles. The assay is described as above.
Consider B2, for which the “Binding Affinity Rank” value is 6 rank.

Consider B5, for which the “Binding Affinity Rank” value worked out at 5 rank.

The target in another assay is T1, monomeric C-reactive protein (CRP). In words: relative CRP-binding assay, detection antibody AbCam OX-24 (#Ab112197).
With B1, the “Binding Potential” value was determined as 14.

As for B2, the “Binding Potential” value worked out at 1.

On to B3, for which the “Binding Potential” value was determined as 14.

With B4, the “Binding Potential” value came out at 101.

In the case of B5, the “Binding Potential” value amounted to 2.

For a further assay the target is unchanged. In words: relative CRP-binding assay, percent of CFH-Risk, detection antibody AbCam OX-24 (#Ab112197).
On to B1, for which the “% FH-Risk” value amounted to 972%.

Turning to B2, the “% FH-Risk” value is 100%.

As to B3, the “% FH-Risk” value amounted to 956%.

Consider B4, for which the “% FH-Risk” value amounted to 6870%.

Turning to B5, the “% FH-Risk” value is 131%.

(Values after patent publication US20210338838A1 (UNIVERSITY OF UTAH RESEARCH FOUNDATION, published 2021).)
